Measurements published in patent US20220047716A1, “COMBINATION THERAPIES WITH ANTI-FOLATE RECEPTOR ANTIBODY CONJUGATES” (SUTRO BIOPHARMA, INC., priority 2018, published 2022).

Molecular target: human folate receptor alpha (hFolRα) on cells (human) (UniProt P15328)
Test: cell-based or functional assay

Chain of human folate receptor alpha (hFolRα) on cells (human) (P15328 25-234 limits assumed): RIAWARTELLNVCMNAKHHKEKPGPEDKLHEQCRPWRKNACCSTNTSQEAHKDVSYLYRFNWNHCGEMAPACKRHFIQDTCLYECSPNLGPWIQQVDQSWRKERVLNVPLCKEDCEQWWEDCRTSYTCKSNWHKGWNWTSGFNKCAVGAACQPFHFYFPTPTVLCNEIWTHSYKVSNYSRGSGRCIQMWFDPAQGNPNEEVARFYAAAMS

## ADC Molecule 21 (IMGN853 surrogate, Mov19-sulfo-SPDB-DM4) (antibody)
  fold shift of cell killing EC50 on Igrov1 cells on addition of naked antibody: 3 fold
